Measured values published in patent US20120135923A1 (IPSEN PHARMA S A S, published 2012).
Bridge positions count the residues as written; N and C are the ends. Square brackets hold non-standard residues; d marks the D form. 1Nal = N[C@@H](Cc1cccc2ccccc12)C(=O)O; 2Nal = N[C@@H](Cc1ccc2ccccc2c1)C(=O)O; d2Nal = N[C@H](Cc1ccc2ccccc2c1)C(=O)O; Bta = N[C@@H](Cc1csc2ccccc12)C(=O)O; βAla = NCCC(=O)O

B1: Ac-c(Cys-Glu-His-D-2-Nal-Arg-Bal-Ala-Cys)-Pro-Pro-Lys-Asp-β-[…]NH2 (peptide)
peptide: Ac-CEH[d2Nal]R[Bta]ACPPKD[βAla]RRRRRQRRR-NH2
modifications: disulfide 1-8
B2: Ac-c(Cys-Glu-His-D-2-Nal-Arg-1-Nal-Ala-Cys)-Pro-Pro-Lys-Asp-β-[…]NH2 (peptide)
peptide: Ac-CEH[d2Nal]R[1Nal]ACPPKD[βAla]RRKRRQRRR-NH2
modifications: disulfide 1-8
SMILES: CC(=O)N[C@H]1CSSC[C@@H](C(=O)N2CCC[C@H]2C(=O)N2CCC[C@H]2C(=O)N[C@@H](CCCCN)C(=O)N[C@@H](CC(=O)O)C(=O)NCCC(=O)N[C@@H](CCCNC(=N)N)C(=O)N[C@@H](CCCNC(=N)N)C(=O)N[C@@H](CCCCN)C(=O)N[C@@H](CCCNC(=N)N)C(=O)N[C@@H](CCCNC(=N)N)C(=O)N[C@@H](CCC(N)=O)C(=O)N[C@@H](CCCNC(=N)N)C(=O)N[C@@H](CCCNC(=N)N)C(=O)N[C@@H](CCCNC(=N)N)C(N)=O)NC(=O)[C@H](C)NC(=O)[C@H](Cc2cccc3ccccc23)NC(=O)[C@H](CCCNC(=N)N)NC(=O)[C@@H](Cc2ccc3ccccc3c2)NC(=O)[C@H](Cc2c[nH]cn2)NC(=O)[C@H](CCC(=O)O)NC1=O
B3: Ac-c(Cys-Glu-His-D-2-Nal-Arg-2-Nal-Ala-Cys)-Pro-Pro-Lys-Asp-β-[…]NH2 (peptide)
peptide: Ac-CEH[d2Nal]R[2Nal]ACPPKD[βAla]RRKRRQRRR-NH2
modifications: disulfide 1-8
SMILES: CC(=O)N[C@H]1CSSC[C@@H](C(=O)N2CCC[C@H]2C(=O)N2CCC[C@H]2C(=O)N[C@@H](CCCCN)C(=O)N[C@@H](CC(=O)O)C(=O)NCCC(=O)N[C@@H](CCCNC(=N)N)C(=O)N[C@@H](CCCNC(=N)N)C(=O)N[C@@H](CCCCN)C(=O)N[C@@H](CCCNC(=N)N)C(=O)N[C@@H](CCCNC(=N)N)C(=O)N[C@@H](CCC(N)=O)C(=O)N[C@@H](CCCNC(=N)N)C(=O)N[C@@H](CCCNC(=N)N)C(=O)N[C@@H](CCCNC(=N)N)C(N)=O)NC(=O)[C@H](C)NC(=O)[C@H](Cc2ccc3ccccc3c2)NC(=O)[C@H](CCCNC(=N)N)NC(=O)[C@@H](Cc2ccc3ccccc3c2)NC(=O)[C@H](Cc2c[nH]cn2)NC(=O)[C@H](CCC(=O)O)NC1=O
B4: Ac-c(Cys-Glu-His-D-2-Nal-Arg-Bal-Ala-Cys)-Pro-Pro-Arg-Asp-β-[…]NH2 (peptide)
peptide: Ac-CEH[d2Nal]R[Bta]ACPPRD[βAla]RRRRRQRRR-NH2
modifications: disulfide 1-8
SMILES: CC(=O)N[C@H]1CSSC[C@@H](C(=O)N2CCC[C@H]2C(=O)N2CCC[C@H]2C(=O)N[C@@H](CCCNC(=N)N)C(=O)N[C@@H](CC(=O)O)C(=O)NCCC(=O)N[C@@H](CCCNC(=N)N)C(=O)N[C@@H](CCCNC(=N)N)C(=O)N[C@@H](CCCNC(=N)N)C(=O)N[C@@H](CCCNC(=N)N)C(=O)N[C@@H](CCCNC(=N)N)C(=O)N[C@@H](CCC(N)=O)C(=O)N[C@@H](CCCNC(=N)N)C(=O)N[C@@H](CCCNC(=N)N)C(=O)N[C@@H](CCCNC(=N)N)C(N)=O)NC(=O)[C@H](C)NC(=O)[C@H](Cc2csc3ccccc23)NC(=O)[C@H](CCCNC(=N)N)NC(=O)[C@@H](Cc2ccc3ccccc3c2)NC(=O)[C@H](Cc2c[nH]cn2)NC(=O)[C@H](CCC(=O)O)NC1=O
B5: Ac-c(Cys-Glu-His-D-2-Nal-Arg-1-Nal-Ala-Cys)-Pro-Pro-Arg-Asp-β-[…]NH2 (peptide)
peptide: Ac-CEH[d2Nal]R[1Nal]ACPPRD[βAla]RRRRRQRRR-NH2
modifications: disulfide 1-8
SMILES: CC(=O)N[C@H]1CSSC[C@@H](C(=O)N2CCC[C@H]2C(=O)N2CCC[C@H]2C(=O)N[C@@H](CCCNC(=N)N)C(=O)N[C@@H](CC(=O)O)C(=O)NCCC(=O)N[C@@H](CCCNC(=N)N)C(=O)N[C@@H](CCCNC(=N)N)C(=O)N[C@@H](CCCNC(=N)N)C(=O)N[C@@H](CCCNC(=N)N)C(=O)N[C@@H](CCCNC(=N)N)C(=O)N[C@@H](CCC(N)=O)C(=O)N[C@@H](CCCNC(=N)N)C(=O)N[C@@H](CCCNC(=N)N)C(=O)N[C@@H](CCCNC(=N)N)C(N)=O)NC(=O)[C@H](C)NC(=O)[C@H](Cc2cccc3ccccc23)NC(=O)[C@H](CCCNC(=N)N)NC(=O)[C@@H](Cc2ccc3ccccc3c2)NC(=O)[C@H](Cc2c[nH]cn2)NC(=O)[C@H](CCC(=O)O)NC1=O
B6: Ac-c(Cys-Glu-His-D-2-Nal-Arg-2-Nal-Ala-Cys)-Pro-Pro-Lys-Asp-β-[…]NH2 (peptide)
peptide: Ac-CEH[d2Nal]R[2Nal]ACPPKD[βAla]RKRRRQRRR-NH2
modifications: disulfide 1-8
SMILES: CC(=O)N[C@H]1CSSC[C@@H](C(=O)N2CCC[C@H]2C(=O)N2CCC[C@H]2C(=O)N[C@@H](CCCCN)C(=O)N[C@@H](CC(=O)O)C(=O)NCCC(=O)N[C@@H](CCCNC(=N)N)C(=O)N[C@@H](CCCCN)C(=O)N[C@@H](CCCNC(=N)N)C(=O)N[C@@H](CCCNC(=N)N)C(=O)N[C@@H](CCCNC(=N)N)C(=O)N[C@@H](CCC(N)=O)C(=O)N[C@@H](CCCNC(=N)N)C(=O)N[C@@H](CCCNC(=N)N)C(=O)N[C@@H](CCCNC(=N)N)C(N)=O)NC(=O)[C@H](C)NC(=O)[C@H](Cc2ccc3ccccc3c2)NC(=O)[C@H](CCCNC(=N)N)NC(=O)[C@@H](Cc2ccc3ccccc3c2)NC(=O)[C@H](Cc2c[nH]cn2)NC(=O)[C@H](CCC(=O)O)NC1=O
B7: Ac-c(Cys-Glu-His-D-2-Nal-Arg-2-Nal-Ala-Cys)-Pro-Pro-Lys-Asp-β-[…]NH2 (peptide)
peptide: Ac-CEH[d2Nal]R[2Nal]ACPPKD[βAla]YGRKRRRQRRR-NH2
modifications: disulfide 1-8
SMILES: CC(=O)N[C@H]1CSSC[C@@H](C(=O)N2CCC[C@H]2C(=O)N2CCC[C@H]2C(=O)N[C@@H](CCCCN)C(=O)N[C@@H](CC(=O)O)C(=O)NCCC(=O)N[C@@H](Cc2ccc(O)cc2)C(=O)NCC(=O)N[C@@H](CCCNC(=N)N)C(=O)N[C@@H](CCCCN)C(=O)N[C@@H](CCCNC(=N)N)C(=O)N[C@@H](CCCNC(=N)N)C(=O)N[C@@H](CCCNC(=N)N)C(=O)N[C@@H](CCC(N)=O)C(=O)N[C@@H](CCCNC(=N)N)C(=O)N[C@@H](CCCNC(=N)N)C(=O)N[C@@H](CCCNC(=N)N)C(N)=O)NC(=O)[C@H](C)NC(=O)[C@H](Cc2ccc3ccccc3c2)NC(=O)[C@H](CCCNC(=N)N)NC(=O)[C@@H](Cc2ccc3ccccc3c2)NC(=O)[C@H](Cc2c[nH]cn2)NC(=O)[C@H](CCC(=O)O)NC1=O
B8: Ac-c(Cys-Glu-His-D-2-Nal-Arg-Bal-Ala-Cys)-Pro-Pro-Lys-Asp-β-[…]NH2 (peptide)
peptide: Ac-CEH[d2Nal]R[Bta]ACPPKD[βAla]YGRRRRRQRRR-NH2
modifications: disulfide 1-8
SMILES: CC(=O)N[C@H]1CSSC[C@@H](C(=O)N2CCC[C@H]2C(=O)N2CCC[C@H]2C(=O)N[C@@H](CCCCN)C(=O)N[C@@H](CC(=O)O)C(=O)NCCC(=O)N[C@@H](Cc2ccc(O)cc2)C(=O)NCC(=O)N[C@@H](CCCNC(=N)N)C(=O)N[C@@H](CCCNC(=N)N)C(=O)N[C@@H](CCCNC(=N)N)C(=O)N[C@@H](CCCNC(=N)N)C(=O)N[C@@H](CCCNC(=N)N)C(=O)N[C@@H](CCC(N)=O)C(=O)N[C@@H](CCCNC(=N)N)C(=O)N[C@@H](CCCNC(=N)N)C(=O)N[C@@H](CCCNC(=N)N)C(N)=O)NC(=O)[C@H](C)NC(=O)[C@H](Cc2csc3ccccc23)NC(=O)[C@H](CCCNC(=N)N)NC(=O)[C@@H](Cc2ccc3ccccc3c2)NC(=O)[C@H](Cc2c[nH]cn2)NC(=O)[C@H](CCC(=O)O)NC1=O
B9: Ac-c(Cys-Glu-His-D-2-Nal-Arg-Bal-Ala-Cys)-Pro-Pro-Lys-Asp-β-[…]NH2 (peptide)
peptide: Ac-CEH[d2Nal]R[Bta]ACPPKD[βAla]YGRRKRRQRRR-NH2
modifications: disulfide 1-8
SMILES: CC(=O)N[C@H]1CSSC[C@@H](C(=O)N2CCC[C@H]2C(=O)N2CCC[C@H]2C(=O)N[C@@H](CCCCN)C(=O)N[C@@H](CC(=O)O)C(=O)NCCC(=O)N[C@@H](Cc2ccc(O)cc2)C(=O)NCC(=O)N[C@@H](CCCNC(=N)N)C(=O)N[C@@H](CCCNC(=N)N)C(=O)N[C@@H](CCCCN)C(=O)N[C@@H](CCCNC(=N)N)C(=O)N[C@@H](CCCNC(=N)N)C(=O)N[C@@H](CCC(N)=O)C(=O)N[C@@H](CCCNC(=N)N)C(=O)N[C@@H](CCCNC(=N)N)C(=O)N[C@@H](CCCNC(=N)N)C(N)=O)NC(=O)[C@H](C)NC(=O)[C@H](Cc2csc3ccccc23)NC(=O)[C@H](CCCNC(=N)N)NC(=O)[C@@H](Cc2ccc3ccccc3c2)NC(=O)[C@H](Cc2c[nH]cn2)NC(=O)[C@H](CCC(=O)O)NC1=O

molecular target: T1, human melanocortin receptor subtype 1 (hMC1-R) (human, UniProt Q01726 1-317); assay: [125I]-NDP-α-MSH competition, membranes
T1 construct: whole, on cells; membranes of CHO-K1 cells
Description: (§1) Cellular membranes used for the in vitro receptor binding assays were obtained from transgenic CHO-K1 cells stably expressing hMC-R receptor subtypes 1, 3, 4 or 5. […] The pellets were resuspended in the same buffer and centrifuged at 50,000 g for 10 minutes at approximately 4° C. The washed pellets containing the cellular membranes were stored at approximately −80° C.
(§2) Competitive inhibition of [¹²⁵I](Tyr²)-(Nle⁴-D-Phe⁷)α-MSH ([¹²⁵I]-NDP-α-MSH, Amersham Biosciences®) binding was carried out in polypropylene 96 well plates. Cell membranes (1-10 μg protein/well) prepared as described above were incubated in 50 mM Tris-HCl at pH 7.4 containing 0.2% bovine serum albumin (BSA), 5 mM MgCl₂, 1 mM CaCl₂ and 0.1 mg/mL bacitracin, with increasing concentrations of the test compound and 0.1-0.3 nM […] for approximately 90-120 minutes at approximately 37° C. Bound [¹²⁵I]-NDP-α-MSH ligand was separated from free [¹²⁵I]-NDP-α-MSH by filtration through GF/C glass fiber filter plates (Unifilter®; Packard) presoaked with 0.1% (w/v) polyethylenimine (PEI), using a Packard Filtermate® harvester. Filters were washed three times with 50 mM Tris-HCl at pH 7.4 at a temperature of approximately 0-4° C. and then assayed for radioactivity using a Packard Topcount® scintillation counter. Binding data were analyzed by computer-assisted non-linear regression analysis (XL fit; IDBS).

T1 sequence (Q01726 whole entry): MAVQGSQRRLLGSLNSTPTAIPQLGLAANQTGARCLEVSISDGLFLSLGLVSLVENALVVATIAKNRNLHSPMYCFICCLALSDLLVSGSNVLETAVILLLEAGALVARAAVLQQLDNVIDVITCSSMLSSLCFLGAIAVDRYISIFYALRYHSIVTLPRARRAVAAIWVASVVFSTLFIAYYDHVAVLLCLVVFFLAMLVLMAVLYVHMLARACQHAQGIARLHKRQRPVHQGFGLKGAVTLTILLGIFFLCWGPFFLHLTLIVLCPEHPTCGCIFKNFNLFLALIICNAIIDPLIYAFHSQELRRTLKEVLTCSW

Binder | Ki
B1 | 3.86 nM
B2 | 4.62 nM
B3 | 3.41 nM
B4 | 4.11 nM
B5 | 2.93 nM
B6 | 2.25 nM
B7 | 1.49 nM
B8 | 3.07 nM
B9 | 2.24 nM

molecular target: T2, human melanocortin receptor subtype 3 (hMC3-R) (human, UniProt P41968 1-323); assay: [125I]-NDP-α-MSH competition, membranes
T2 construct: whole, on cells; membranes of CHO-K1 cells
Description: as §1, §2

T2 sequence (P41968 whole entry): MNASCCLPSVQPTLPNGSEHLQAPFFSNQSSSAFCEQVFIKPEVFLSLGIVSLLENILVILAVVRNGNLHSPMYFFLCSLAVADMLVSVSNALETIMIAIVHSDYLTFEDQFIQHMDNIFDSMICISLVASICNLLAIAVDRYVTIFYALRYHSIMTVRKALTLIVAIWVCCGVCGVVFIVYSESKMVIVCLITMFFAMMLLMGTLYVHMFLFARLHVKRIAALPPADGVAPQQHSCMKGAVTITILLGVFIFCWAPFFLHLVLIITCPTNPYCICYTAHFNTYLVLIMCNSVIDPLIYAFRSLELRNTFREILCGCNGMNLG

Binder | Ki
B1 | 4.97 nM
B2 | 5.68 nM
B3 | 0.975 nM
B4 | 7.26 nM
B5 | 9.07 nM
B6 | 0.62 nM
B7 | 0.604 nM
B8 | 4.05 nM
B9 | 1.57 nM

molecular target: T3, human melanocortin receptor subtype 4 (hMC4-R) (human, UniProt P32245 1-332); assay: [125I]-NDP-α-MSH competition, membranes
T3 construct: whole, on cells; membranes of CHO-K1 cells
Description: as §1, §2

T3 sequence (P32245 whole entry): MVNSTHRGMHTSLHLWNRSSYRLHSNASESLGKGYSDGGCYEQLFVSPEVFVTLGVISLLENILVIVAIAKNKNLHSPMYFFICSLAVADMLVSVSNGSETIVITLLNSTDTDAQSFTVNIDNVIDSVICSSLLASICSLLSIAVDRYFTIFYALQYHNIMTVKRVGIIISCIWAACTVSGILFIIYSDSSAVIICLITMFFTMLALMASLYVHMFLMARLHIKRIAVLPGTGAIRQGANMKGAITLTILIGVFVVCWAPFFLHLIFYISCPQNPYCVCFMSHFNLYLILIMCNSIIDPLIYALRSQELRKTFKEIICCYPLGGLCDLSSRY

Binder | Ki
B1 | 0.192 nM
B2 | 0.505 nM
B3 | 0.549 nM
B4 | 0.302 nM
B5 | 0.293 nM
B6 | 0.303 nM
B7 | 0.865 nM
B8 | 0.498 nM
B9 | 0.437 nM

molecular target: T4, human melanocortin receptor subtype 5 (hMC5-R) (human, UniProt P33032 1-325); assay: [125I]-NDP-α-MSH competition, membranes
T4 construct: whole, on cells; membranes of CHO-K1 cells
Description: as §1, §2

T4 sequence (P33032 whole entry): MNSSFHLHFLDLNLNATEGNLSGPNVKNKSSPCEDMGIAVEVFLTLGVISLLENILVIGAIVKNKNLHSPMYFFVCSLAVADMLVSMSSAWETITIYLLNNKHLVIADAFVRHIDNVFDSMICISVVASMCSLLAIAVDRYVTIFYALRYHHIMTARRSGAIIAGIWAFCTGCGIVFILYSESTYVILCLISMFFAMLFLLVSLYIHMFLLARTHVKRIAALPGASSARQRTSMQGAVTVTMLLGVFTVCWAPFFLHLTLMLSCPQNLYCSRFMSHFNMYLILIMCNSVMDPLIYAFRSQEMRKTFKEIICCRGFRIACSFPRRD

Binder | Ki
B1 | 38.3 nM
B2 | 45.3 nM
B3 | 11.3 nM
B4 | 48.3 nM
B5 | 59 nM
B6 | 2.77 nM
B7 | 3.13 nM
B8 | 31.1 nM
B9 | 16.4 nM
